The text below walks through data of paper PMC2828547, “UIF, a New mRNA Export Adaptor that Works Together with REF/ALY, Requires FACT for Recruitment to mRNA” (Current Biology, 2009).

The target in this test is T1, GST-UAP56 (UniProt Q13838 1-428).
T1 construct: UAP56
Briefly: pull-down; GST fusion proteins with purified UIF in the presence of RNase; Coomassie staining. The settings on record: both partners purified.

T1 sequence (Q13838 whole entry): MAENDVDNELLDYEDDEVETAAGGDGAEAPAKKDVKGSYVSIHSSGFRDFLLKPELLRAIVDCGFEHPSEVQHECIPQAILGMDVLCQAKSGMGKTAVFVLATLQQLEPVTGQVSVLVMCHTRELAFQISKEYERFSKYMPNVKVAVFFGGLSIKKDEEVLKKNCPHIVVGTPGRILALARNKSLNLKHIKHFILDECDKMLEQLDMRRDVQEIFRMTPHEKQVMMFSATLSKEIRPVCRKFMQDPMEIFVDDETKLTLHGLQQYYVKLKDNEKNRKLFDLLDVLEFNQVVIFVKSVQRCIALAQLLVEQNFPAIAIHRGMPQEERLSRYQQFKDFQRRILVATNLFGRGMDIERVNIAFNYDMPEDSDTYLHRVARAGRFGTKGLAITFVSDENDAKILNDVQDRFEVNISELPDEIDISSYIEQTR

B1: purified UIF (recombinant) (natural protein, human, UniProt Q96QD9 1-318, looked up)
chain: MNRFGTRLVGATATSSPPPKARSNENLDKIDMSLDDIIKLNRKEGKKQNFPRLNRRLLQQSGAQQFRMRVRWGIQQNSGFGKTSLNRRGRVMPGKRRPNGVITGLAARKTTGIRKGISPMNRPPLSDKNIEQYFPVLKRKANLLRQNEGQRKPVAVLKRPSQLSRKNNIPANFTRSGNKLNHQKDTRQATFLFRRGLKVQAQLNTEQLLDDVVAKRTRQWRTSTTNGGILTVSIDNPGAVQCPVTQKPRLTRTAVPSFLTKREQSDVKKVPKGVPLQFDINSVGKQTGMTLNERFGILKEQRATLTYNKGGSRFVTVG
notes: it may be the GB1-6His-UIF of m18; also called recombinant UIF
In the case of B1, the binding result was “binds”.
